Laboratory results as given in US20040038887A1 (Harvard, published 2004).
No end group written: not given here.

B1: Biotinylated MBP 86-100 (SEQ ID NO: 1) (peptide)
peptide: SGSGNPVVHFFKNIVTPRT
modifications: not fully specified
B2: MBP 85-99 (SEQ ID NO: 2), unlabeled (peptide)
peptide: ENPVVHFFKNIVTPR
notes: also called unlabeled MBP 85-99 peptide; synthetic unlabeled peptide control MBP 85-99

What was measured:
[1] = biological target: T1, Recombinant water-soluble HLA-DR-2 molecules (DRB1*1501) (human); experiment: ELISA, biotinylated MBP 86-100 (0.13 uM) on soluble HLA-DR-2, no competitor; background 0.1
T1 chain 1: not shown
T1 chain 2: not shown

[2] = biological target: T2, Recombinant water-soluble HLA-DR-2 molecules (DRB1*1501) (human, UniProt P01903 26-216; P01911 30-227, limits assumed); experiment: competition ELISA, unlabeled inhibitor against biotinylated MBP 86-100 on soluble HLA-DR-2 (LB3.1 capture, streptavidin-AP)
T2 construct: Expressed in Drosophila S2 cells and purified on a Protein A-LB3.1 column 'as described (Kalandadze et al. 1996)'; also called HLA DR-2 (DRB1*1501); purified HLA-DR-2

Binder | signal at 410 nm without competitor (absorbance at 410 nm) [1] | binding result [2]
B1 | 0.8 to 0.9 | 
B2 |  | binds
